Measurements published in patent US20200377595A1.

Target: recombinant human CD3 (human)
Assay: SPR, Ab captured by anti-Fc, 37 C

Chain of recombinant human CD3 (human) (P07766 22-126, chain 1 of 2): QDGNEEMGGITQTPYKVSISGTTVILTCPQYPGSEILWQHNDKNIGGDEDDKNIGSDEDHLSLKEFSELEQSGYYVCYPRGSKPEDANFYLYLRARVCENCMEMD
Chain of recombinant human CD3 (human) (P04234 22-100, chain 2 of 2, further chain): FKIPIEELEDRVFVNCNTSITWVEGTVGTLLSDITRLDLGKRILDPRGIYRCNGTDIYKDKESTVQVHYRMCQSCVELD

Kd: 17.8 nM
koff: 0.00151 s⁻¹
kon: 85000 M⁻¹ s⁻¹
B1: GPC3/CtrlxCD3 trispecific antibody (protein, part only; not given: control arm and constant regions, not shown: another chain or arm of the molecule; a dimerising Fc or GST)
VH 1: QVQLVESGGGLVQPGRSLRLSCAASGFTFSNAWMHWVRQAPGKGLEWVAQIKDRANSYNTYYAESVKGRFTISRDDSKNSIYLQMNSLKTEDTAVYYCRYVHYTTYAGSSFSYGVDAWGQGTTVTVSS
VL 1: DIVMTQSPLSLPVTPGEPASISCRSSQPLVHSNRNTYLHWYQQKPGQAPRLLIYKVSNRFSGVPDRFSGSGSGTDFTLKISRVEAEDVGVYYCGQGTQVPYTFGQGTKLEIK
VH 2: QVQLVQSGAEVKKPGASVTVSCKASGYTFTDYEMHWIRQPPGEGLEWIGAIDGPTPDTAYSEKFKGRVTLTADKSTSTAYMELSSLTSEDTAVYYCTRFYSYTYWGQGTLVTVSS
VL 2: B1 VL 1
